Test results as given in patent US20190062398A1 (published 2019).
Residue numbers refer to the chain shown, from its start.

T1: Human papillomavirus type 16 E7 protein peptide on HLA-A*02:01 (human)
T1 peptide: TLGIVCPI

T2: Human papillomavirus type 16 E6 protein peptide on HLA-A*02:01 (human)
T2 peptide: TIHDIILECV

T3: Human papillomavirus type 16 E5 protein peptide on HLA-A*02:01 (human)
T3 peptide: YIIFVYIPL

B1: T7 (TCR, V domains shown)
Valpha: QQPVQSPQAVILREGEDAVINCSSSKALYSVHWYRQKHGEAPVFLMILLKGGEQKGHEKISASFNEKKQQSSLYLTASQLSYSGTYFCGTGTDSWGKLQFGAGTQVVVTP
Vbeta: DAGVIQSPRHEVTEMGQEVTLRCKPISGHDYLFWYRQTMMRGLELLIYFNNNVPIDDSGMPEDRFSAKMPNASFSTLKIQPSEPRDSAVYFCASSPGLAGGEQFFGPGTRLTVL
B2: T4 (TCR, V domains shown)
Valpha: KQEVTQIPAALSVPEGENLVLNCSFTDSAIYNLQWFRQDPGKGLTSLLLIQSSQREQTSGRLNASLDKSSGRSTLYIAASQPGDSATYLCAVRETSGSRLTFGEGTQLTVNP
Vbeta: DVKVTQSSRYLVKRTGEKVFLECVQDMDHENMFWYRQDPGLGLRLIYFSYDVKMKEKGDIPEGYSVSREKKERFSLILESASTNQTSMYLCASSFWGRSTDTQYFGPGTRLTVL
B3: T5a (TCR, V domains shown)
Valpha: SQQGEEDPQALSIQEGENATMNCSYKTSINNLQWYRQNSGRGLVHLILIRSNEREKHSGRLRVTLDTSKKSSSLLITASRAADTASYFCATVSTDSWGKLQFGAGTQVVVTP
Vbeta: DAGITQSPRHKVTETGTPVTLRCHQTENHRYMYWYRQDPGHGLRLIHYSYGVKDTDKGEVSDGYSVSRSKTEDFLLTLESATSSQTSVYFCAISDSNGINIQYFGAGTRLSVL
B4: T3 (TCR, V domains shown)
Valpha: EDQVTQSPEALRLQEGESSSLNCSYTVSGLRGLFWYRQDPGKGPEFLFTLYSAGEEKEKERLKATLTKKESFLHITAPKPEDSATYLCAVQANRGSTLGRLYFGRGTQLTVWP
Vbeta: DVKVTQSSRYLVKRTGEKVFLECVQDMDHENMFWYRQDPGLGLRLIYFSYDVKMKEKGDIPEGYSVSREKKERFSLILESASTNQTSMYLCASSLWGRLAKNIQYFGAGTRLSVL
B5: T5b (TCR, V domains shown)
Valpha: B3 Valpha
Vbeta: B4 Vbeta with L99A, A100G, N102D, I103T, A108P, S113T
B6: T2 (TCR, V domains shown)
Valpha: QKEVEQNSGPLSVPEGAIASLNCTYSDRGSQSFFWYRQYSGKSPELIMSIYSNGDKEDGRFTAQLNKASQYVSLLIRDSQPSDSATYLCAVNVDFNKFYFGSGTKLNVKP
Vbeta: DTEVTQTPKHLVMGMTNKKSLKCEQHMGHRAMYWYKQKAKKPPELMFVYSYEKLSINESVPSRFSPECPNSSLLNLHLHALQPEDSALYLCASSQDWNNEQFFGPGTRLTVL

Key:
Assay in all cases: cytokine release
[1] = biological target: T1, Human papillomavirus type 16 E7 protein …
[2] = biological target: T2, Human papillomavirus type 16 E6 protein …
[3] = biological target: T3, Human papillomavirus type 16 E5 protein …

Binder	binding result [2]	other results
B1	–	binding result [1]: recognises
B2	recognises	–
B3	recognises	–
B4	recognises	–
B5	recognises	–
B6	–	binding result [3]: recognises
